Source: patent publication US20100287629A1

How the values were obtained:
[1] = molecular target: recombinant soluble human CD4 (human) (UniProt P01730); experiment: SPR sensor chip; sCD4 amine-coupled, mAb flowed
[2] = molecular target: recombinant soluble human CD4 (human) (UniProt P01730); experiment: BIAcore; rCD4 coupled to chip, mAb flowed

Substance: Leu3a, mouse anti-human CD4 monoclonal antibody
- Ka [1]: 3.7e+10 M⁻¹
- koff [1]: 4.2e-06 s⁻¹
- kon [1]: 150000 M⁻¹ s⁻¹
- Ka [2]: 3.7e+10 M⁻¹
- koff [2]: 4.2e-06 s⁻¹
- kon [2]: 150000 M⁻¹ s⁻¹
